# From the DeepSol protein solubility set
# Assay: soluble on expression in E. coli; label from the status in PepcDB or PDB records
row,Sequence,soluble on expression in E. coli
1,MGSDKIHHHHHHMYRILVINPGSSSTKVAVFEDEKKIAEKNVSHSVEELKKFKRSMDQEPLRRKAVEDFIDEVGYRIEDFSAIAARGGVLEPVPGGTYVVNEYMVDYLINRSPVDHVSNLAAVIGYKLGKPHGIPCFVVDPVSVDEMCDEARFSGIPEIERKSYSHALNIKAVLRKVSREMGKTPEEVKIVVAHLGSGISVCACKNGKIIDVNNANDEGPFSIERTGELPVGDVVKTAYSSKHSAAELKEEFTRKGGLLAYLGTKNLKKALDSMETSRKAKLVVEAMAYQIAKEIGGMCAVLGEKPDAIVITGGMAHEIRFVRMITDYIEKFGKVEVIPGELEMEALALGVLRVLRGEEKAMDYRSVVE,not soluble
2,MGSDKIHHHHHHMEITSKTYLSTILGNDLAAGFYPTPLTEGNHLIQLLQMESERAYACFDPCCGEGTILRSFADAVKQVGIQLDTYGVELDANRYNKAKEQLDVVIRSSFESMMISHDYFPLIFLNPPYNTELRTEKKKSEKMEFNFLKRAHHYLQDGGIMVYVIPYDRFARDEISYFLAKNYEEIGLMRFGDENEEFEQFKQCVFIGRKRAATKNDTYFNDRFANFCENMSELDFVREHVNTLAQMVNRKSWTIPTLRNQNKLIFTSRVDYKDAYEGVGKSEGILTLKKRLNRGNGYSLQAEKTAAERAKMPIASGQLGLLLITGVADGLLGEGDTLHAVRGSENVFFETSFEKLETTTKEVVLQKRRAKFIIATPTGEVKELV,not soluble
3,MMPTSTCGYPGMAEQSTVLYTAVGYMVGFVSLFNHTHSQDNFFHRGCYYGCDDDNMRFAFFSKAALEFLLRSNKKPDIIHCHDWQTGLIPIMLYEIYKYHGMEYQRVCYTIHNFKHQGMGGVGTLQATALNEASYYFQYNKLRDNFNPFALNLMKGGIIYSNAVTTVSPHHAVEAQTSE,not soluble
4,GPGSMLNTAFSTADGRRLPRDLTDQQKRDIEEAFRVLDVKGVSTITPNDLKVALRALGYEPDKDAVRKLVAEMDRGGVSSNLVLSEFEDVMRQRFFAEDKDDEVDLAFPLFTEGKSEFISLDDLKRVAAEVGEDIPEDVLQEIIRECDVLDRDGRISREEFNKMLKSDK,soluble
5,MNIRQAKTSDAAAIAPLFNQYREFYRQASDLQGAEAFLKARLENHESVILIAEENGEFIGFTQLYPTFSSVSMKRIYILNDLFVVPHARTKGAGGRLLSAAKDYAGQNGAKCLTLQTEHHNRKARSLYEQNGYEEDTGFVHYCLNVPAK,soluble
6,EGFKKLELNYMKERSYEEAKEYLDRALKNSVLKRVRGLDKVGIICSGGVDSSLIAKLASLYCEVILYAVGTENSEDLIYAERLAKDLNLKLRKKIISEEEYEEYVFKVAKAIDEVDLMKIGVGIPIYVASEMANEDGLKVVLSGQGADELFGGYARHERIYRERGEEELKKELLKDVYNLYKVNLERDDHCTMANGVELRVPFLDEEVVEIALSIPIEYKMSELSNRPYAESNISLKSEPINGLKNTNLNIKCVRSVRKKILRDVASQYLPDYIAYRPKKAAQYGSG,soluble
7,MTDRGIVFNIQHFSIHDGPGIRTTVFLKGCPLRCPWCANPESQQKAPEQMLTSDGLNTKIVGEEKTVDEVIEEVLKDLDFYEESGGGMTLSGGEIFAQFDFALALLKAAKAAGLHTAIETTAFAKHEQFVTLVDYVDFIYTDLKHYNQLRHQKVTGVRNDLIIKNIHYAFQAGKEIVLRIPVIPQFNDSLDDAKAFSELFNQLEIDQVQLLPFHQFGENKYKLLGREYEMAEVKAYHPEDLADYQAVFLNHNIHCYF,not soluble
8,MFSPLGQFKHIVCPFLRTGRKCQSRNCFFSHDFQNSTKISPPYSENVEGYPKVKIEKSLPYKYDNCKLSICVPIVTTCIPYHSVENLNFNIRQNISTTLNLEKTNDSIKETKNENFRMDVLETYKCKQLNHQTTHLPTNTVLKKRSLFNDAISIVPNKKKQLVSAISTNSDSQGASSNIIPTPKYDSNSPAGHELRKRMTHLLYESYKDLGYSNAESSMLALLDEKNICETANSKMIYSSSCKSKILSLKKAPKKNEIQGSTPDEKLESLVHSEEELILWGYNIGDVAPVNPPDELRECDRCGTRFADPRGPCTYHWGKLFREKQGGEKIRTYTCCGVKEGDSSGCIIEDNHVFKYRHLPYLASVHPFSYLPDSTNSKQLSHCALDCELCYTTNGMELARLTVVAKESIIMDVFIKPKGKILSLNTRFSGIHDAKELESGITMDQMYIKIKELGMNKNTILIGHGLENDLNAMRLIHKRVIDTALLFTHARGPPFRYSLKYLTKKYLGTTIQTSTHDSEEDAVSALQLVFYKTKSNESQN,soluble
9,MKRASVWMLLCLFFMLSGCANPSFPPVVDSLSVVISLDVKAETVTFLNAKNGSKIARWNINEPFQGGALSPDGRTLLLYGRDLDRVYRYDLAGGKPLSEWKTGNGIVSAAPSPDGRTWFFGDSTHHAVRVVSRGGKEIARLSVGRSPMTLLVNRQGTELYAIDFQDGRAFVIDASRLRVIRSFSVPKFALGGLMRERRGELWVGGHGSGNKVEKNIHVYSLRDGRLLRTIAAPVMPVDFVETGRGVFVLSHGSNTVYQFLPSGKRLNSVLVGANPFAMEAAGSRLYIASYDSDEIIVVDEATLRPLARWKTGDGPLQLFIREGRT,not soluble
10,MSLRTLAVETSCDETALAIYDDQKGVLGNVILSQAVVHSPFGGVVPELSAREHTRNILPIFDRLLKESRINLEEIDFISFTLTPGLILSLVVGVAFAKALAYEYRKPLVPVHHLEGHIYSVFLEKKVEYPFLALIISGGHTDLYLVRDFGRYDFLGGTLDDAVGEAYDKVAKMLGLGYPGGPIIDRLAKEGKKLYPLPKPLMEEGNLNFSFSGLKTAILNLLKKEKNVRKEDIAYSFQETVVEILLEKSLWAMKKTGIKRLVVVGGVSANSRLREVFKKASQEYGFELYIPHPSLSTDNALMIAYAGMERFKRGVVAPLDVNPQPNIPLEEFGRIWTEGHHHHHH,soluble
11,GSSGSSGMPMTLGYWDIRGLAHAIRLFLEYTDSSYEEKRYTMGDAPDYDQSQWLNEKFKLGLDFPNLPYLIDGSHKITQSNAILRYLGRKHNLCGETEEERIRVDILENQLMDNRMVLARLCYNADFEKLKPGYLEQLPGMMRLYSEFLGKRPWFAGDKITFVDFIAYDVLERNQVFEAKCLDAFPNLKDFIARFEGLKKISDYMKTSRFLPRPMFTKMATWGSNSGPSSG,soluble
12,MGSDKIHHHHHHMTRIASHRGGTLEFGDSTPHGFTATAAMALEEVEFDLHPTADGAIVVHHDPTLDATTDMTGAIVDMTLAKVKTATIRYGAGSHPMTLEELCALYVDSHVNFRCEIKPGVDGLPYEGFVALVIAGLERHSMLERTTFSSFLLASMDELWKATTRPRLWLVSPSVLQQLGPGAVIETAIAHSIHEIGVHIDTADAGLMAQVQAAGLDFGCWAAHTPSQITKALDLGVKVFTTDRPTLAIALRTEHRMEASV,not soluble
13,MPFPSRSLRATLCSAPVRMPDAAQKNAATPPPPLALSKPSPSPWAALLTPSSLSFPCSPSLPTYRRTRTAMHGSPPARGLQRRIKVPLMASAPSSIAFDIAAPTAAAWIARWMPVASPRRCSPLLRLCGDYPRCAVAAALSCQRLWIRSTSPLACSTAAGQTRSTPKMTKRPRRGIRRPSRAAGRLGSDTEEAENAALCQRHPEEHAGIFQSQHIKPFPVRAAIDIGTGGVVSLCVARVDATVGAIQKLMYQTQLPLHLEALPTSMSSPSSPLSASSSSFTLSERTMEDITNKVHILQGAMRRNAFEGLSERAAVLSWPLCLARNAGQLAERLTKEFKVDVRVLGADFDVEWPPSVARFLAGEGASTPETADDSRSTVDKGTRDSVTRKGAENTLKSLLCAARAPTTSGLARHKRKVTAPPSSGSASSRGAMDARTQLDTLAFLAHAAVSQCVAPQRLLVLHEDPQRGLRLLGLGTSAADDIADLLDDATTPEERQSLYAIAHGPGPSLLEAGERTPSSGKQVFVAAHAQSRQQASLLPTLSSMRDCQGSADDGTSSDAAPAAASLMRLVEHPLPVDVASAHRYCITQIQRRPLESYGLHASSPNPLLADEFAALRGLLVGMIQPTLPAWVRRKAQLGGVLCGTSHNGGLLNLAARVSQQTHVSLEHLEVHAQYHFCGLTDVLLAESFPNPFLVLPSVALTAAVLRSLESPRITYLPEVSVAAALLVQPSLWLHARATEVRARLARDPFYASTTAAQRGRMFGRPHRKDNPTAAPDATWVKEGRWNPISFSESMRGT,not soluble
14,MGSDKIHHHHHHMKLLHIERHTTCLNYVSDYNICFIHQRLFSGGDFKIDNHHHSCILFLLKGEILTSCSEFHDQHIVEGHMVLFPQNDPNQSKSMTETEFILLFFDNQVNLHNKMSIELSAIHLESEKSCFYSLSICPPLRHVLDSICFYLKQKVQCSHMHELKQKEIFMVFGTFYNRTDMAHFLMPITGRDPNFKSFVLENYLQIRNIKQFAQLYHCSERSFNRKFKSCFHDTPYNWILNQKTRHIKGQLANRNIPISEIARTFHFASPSHFTTYCKKRLGITPSEFREKIAK,not soluble
15,LMPLRDIVIFPTMVQPLFVGRRFSIRAIEEANKKDKLIFLVLQKDKDVEEPKEEDIYKVGVVAYILRTVPIEDARVKVLVQGLKRGVIKKLEWKEDHYVAQVDVIEERDIPPESQTIEDKALIKAVKESIDKLVSLGKQIIPDLVVLIKELEEPGKLADMVASILDIKSSQAQEILETFDPRERLKK,soluble
16,MGSDKIHHHHHHMNYNKLSSATIQGIEAMKIDVEVDFDNRSVFNDIDVVGLGDTAVKESRKRVKSAILNSGFSLPHGKYVVNLAPGDVRKEGSMLDLPIALCILASTGIVQVSENILAIGELSLNGEVKRVNGVLPVLLSLSEMFSGTVLIPKENEEEAKCVKELDIYAVESLRECVEFLRGDRTLKRIEYSGIENTNLEYEIDFSDVRDHEMVKRAVEIAVAGFHNILMVGNPGSGKTMIAKRIPTIFPPMSEEEILETSKVYSASGYPGIVKLRPFRAPHHTASTVSIIGGGTNPRPGEISLAHNGVLFLDELPEFKRDVLEALRQPLEEGIVTVARAKFTVTYPARFMLVGAMNPCPCGNLGDPKQPCVCSPRDIMRYRKKISGPLLDRMDLVINVPKLSFEEMMKKPEGEKSSSIRERVMKAREIQKRRFRDTHISCNSQMSHRMLRRFVQLDEKSEDLLKRYVERYGLSGRKIDKVLKISRTIADLEGSNGVEMSHLAEALQYRFRES,not soluble
17,MSLKSISLLLLSLLMITPSCQKPKEVTNEYNIVPQPNQLVPKEGRFELSNKVRLVVPSDAPEVKKVADGFAEQLKQTAGISLTEAESVDGKPAISFVLQEGMPKEGYKLSVTPTLITVTASQPNGFFYGVQTIYQLLPPAVYGKELKKKADWSVPAVEIEDAPRFVHRGLMLDVCRHYAPIEYIYKFIDLLAMNKMNVFHWHLTDDQGWRIEIKKYPKLTEIGSKREKTLVDYYYVNYPQVFDGIEHGGYYTQEQIKEVVAYAASKYINVIPEIEMPGHALAALAAYPELSCDSTQTYKVSPTWGVFEQVFCPSETTFKFFEGVMDEVVELFPSEYIHIGGDECPKTAWKNSTFCQQLIRQLGLKDDATPSKVDGVKHSKEDKLQSYFVTRMEKYLNGKGRNIIGWDEILEGGLAPNATVLSWRGVEGGLNAAKAGHNAIMAPMPYAYLDFYQEDPEIAPTTIGGYTTLKKTYSYNPVPDNADELVKKHIIGMQGNLWREYMKTSDRVDYQAFPRAMAIAETGWTLDANKNWKSFCERMVTEFERLEVMDTKPCLNFFDVNINTHADENGPLMVLLETFYPNAEIRYTTDGSEPTYGSTLYEQPFVLEGNIDLKAAAFKDGKMLGKVTNKPLYGNLLAGKEGHHHHHH,soluble
18,MKKKLVGVECLNEYICQSSNKLYADSSVILTPGARDELSRRGVTVVYGPRPESGEAPAACPPGCTCPACTAAKADSGLEQLLFAVAAMLKTEYGITDPEELKNLSCQALRTIKANL,not soluble
